Results: patent publication US20100278801A1 (published 2010)

Assays:
RB242 = target: T1, RB242 (human, UniProt P00533 25-645; P21860 20-643); assay: displacement of Eu-EGF from immobilised RB242 by unlabeled HB-EGF
T1 construct: extracellular domain; purified to about 95% homogeneity; also called optimized hermodulin variant RB242
Description: (§1) Plates were incubated at RT for 2 hrs and then rinsed 3 times with DELFIA wash buffer. […] The plates were incubated at RT for 2 hrs followed by three quick rinse with ice-cold Delfia wash buffer containing0.02% Tween-20. To quantify bound Eu-ligands 130 μl/well of Delfia enhancement solution was added and the plates were read on a fluorescence plate reader (Envision, model 2100, PerkinElmer).

RB200 [1] = target: T2, RB200 (human, UniProt P00533 25-645; P21860 20-643); assay: displacement of Eu-EGF from immobilised RB200 by unlabeled HB-EGF
T2 construct: extracellular domain; Purified over Ni-Sepharose, so a His tag is likely on one chain, but none is described; also called parent heterodimer RB200; EGFR/HER3 heterodimer
Description: as §1

RB200 [2] = target: T2, RB200; assay: 125I-NRG1-β saturation binding, heterodimer immobilised on anti-Fc coated plate
HER3:Fc mutant H565E = target: T3, HER3:Fc mutant H565E (human, UniProt P21860 20-643); assay: HER3:Fc mutant ligand binding screen
T3 construct: extracellular domain

HER3:Fc mutant K415S = target: T4, HER3:Fc mutant K415S (human, UniProt P21860 20-643); assay: HER3:Fc mutant ligand binding screen
T4 construct: extracellular domain

HER3:Fc mutant D343I = target: T5, HER3:Fc mutant D343I (human, UniProt P21860 20-643); assay: HER3:Fc mutant ligand binding screen
T5 construct: extracellular domain

HER3:Fc mutant L102S = target: T6, HER3:Fc mutant L102S (human, UniProt P21860 20-643); assay: HER3:Fc mutant ligand binding screen
T6 construct: extracellular domain

HER3:Fc mutant G563Q = target: T7, HER3:Fc mutant G563Q (human, UniProt P21860 20-643); assay: HER3:Fc mutant ligand binding screen
T7 construct: extracellular domain

HER3:Fc mutant L48Y = target: T8, HER3:Fc mutant L48Y (human, UniProt P21860 20-643); assay: HER3:Fc mutant ligand binding screen
T8 construct: extracellular domain

HER3:Fc mutant V19Q = target: T9, HER3:Fc mutant V19Q (human, UniProt P21860 20-643); assay: HER3:Fc mutant ligand binding screen
T9 construct: extracellular domain

HER3:Fc mutant N103K = target: T10, HER3:Fc mutant N103K (human, UniProt P21860 20-643); assay: HER3:Fc mutant ligand binding screen
T10 construct: extracellular domain

HER3:Fc mutant D343F = target: T11, HER3:Fc mutant D343F (human, UniProt P21860 20-643); assay: HER3:Fc mutant ligand binding screen
T11 construct: extracellular domain

HER3:Fc mutant D325N = target: T12, HER3:Fc mutant D325N (human, UniProt P21860 20-643); assay: HER3:Fc mutant ligand binding screen
T12 construct: extracellular domain

HER3:Fc mutant D343H = target: T13, HER3:Fc mutant D343H (human, UniProt P21860 20-643); assay: HER3:Fc mutant ligand binding screen
T13 construct: extracellular domain

HER3Y246A:Fc = target: T14, HER3Y246A:Fc (human, UniProt P21860 20-643); assay: HER3:Fc mutant ligand binding screen
T14 construct: extracellular domain; Screened as an Fc fusion homodimer in conditioned medium

HER3:Fc mutant S18T = target: T15, HER3:Fc mutant S18T (human, UniProt P21860 20-643); assay: HER3:Fc mutant ligand binding screen
T15 construct: extracellular domain

HER3:Fc mutant C481R = target: T16, HER3:Fc mutant C481R (human, UniProt P21860 20-643); assay: HER3:Fc mutant ligand binding screen
T16 construct: extracellular domain

HER3:Fc mutant Y436L = target: T17, HER3:Fc mutant Y436L (human, UniProt P21860 20-643); assay: HER3:Fc mutant ligand binding screen
T17 construct: extracellular domain

HER3:Fc mutant A439D = target: T18, HER3:Fc mutant A439D (human, UniProt P21860 20-643); assay: HER3:Fc mutant ligand binding screen
T18 construct: extracellular domain

HER3:Fc mutant S438T = target: T19, HER3:Fc mutant S438T (human, UniProt P21860 20-643); assay: HER3:Fc mutant ligand binding screen
T19 construct: extracellular domain

HER3:Fc mutant D343L = target: T20, HER3:Fc mutant D343L (human, UniProt P21860 20-643); assay: HER3:Fc mutant ligand binding screen
T20 construct: extracellular domain

HER3:Fc mutant F96L = target: T21, HER3:Fc mutant F96L (human, UniProt P21860 20-643); assay: HER3:Fc mutant ligand binding screen
T21 construct: extracellular domain

RB200 [3] = target: T2, RB200; assay: Eu-NRG1-β saturation binding (DELFIA), purified heterodimer immobilised on anti-human Fc plate
Description: as §1

B1: HB-EGF (ligand, UniProt Q99075 63-148, looked up)
chain: DLQEADLDLLRVTLSSKPQALATPNKEEHGKRKKKGKGLGKKRDPCLRKYKDFCIHGECKYVKELRAPSCICHPGYHGERCHGLSL
B1 showed a Ki (RB242) of 1.3 nM and a Ki (RB200 [1]) of 20.1 nM.

B2: NRG1-β (ligand, UniProt Q02297-6 177-241, looked up)
chain: SHLVKCAEKEKTFCVNGGECFMVKDLSNPSRYLCKCPNEFTGDRCQNYVMASFYKHLGIEFMEAE
notes: also called NRG1β1; NRGβ1
With B2 the Kd (RB200 [2]) was 12.3 nM, the binding result (HER3:Fc mutant H565E) was “no binding” and the binding result (HER3:Fc mutant K415S) was “no binding”. B2: no binding (HER3:Fc mutant D343I); no binding (HER3:Fc mutant L102S); no binding (HER3:Fc mutant G563Q). B2: no binding (HER3:Fc mutant L48Y); no binding (HER3:Fc mutant V19Q); no binding (HER3:Fc mutant N103K). B2: no binding (HER3:Fc mutant D343F); no binding (HER3:Fc mutant D325N); no binding (HER3:Fc mutant D343H). B2: binds (HER3Y246A:Fc); no binding (HER3:Fc mutant S18T); no binding (HER3:Fc mutant C481R). B2: no binding (HER3:Fc mutant Y436L); no binding (HER3:Fc mutant A439D); no binding (HER3:Fc mutant S438T). The binding result (HER3:Fc mutant D343L) was “no binding”, the binding result (HER3:Fc mutant F96L) was “no binding” and the Kd (RB200 [3]) was 3.1 nM.
